Sequences and labels used below:
B1: N^ε1-[2-[2-[2-[[2-[2-[2-[[(4S)-4-carboxy-4-(19-carboxynonadecanoylamino)butanoyl]amino]ethoxy]ethoxy]acetyl]amino]ethoxy]ethoxy]acetyl]-[Arg17,Pro21,Pro27,Glu35 … (peptide)
peptide: K([AEEA-AEEA-γGlu-C20 diacid])CNTATCATQRLANFLRHSSPNFGAIPSSTNVGSETY-NH2
modifications: disulfide 2-7; N-terminus assumed
SMILES: CC[C@H](C)[C@H](NC(=O)[C@H](C)NC(=O)CNC(=O)[C@H](Cc1ccccc1)NC(=O)[C@H](CC(N)=O)NC(=O)[C@@H]1CCCN1C(=O)[C@H](CO)NC(=O)[C@H](CO)NC(=O)[C@H](Cc1c[nH]cn1)NC(=O)[C@H](CCCNC(=N)N)NC(=O)[C@H](CC(C)C)NC(=O)[C@H](Cc1ccccc1)NC(=O)[C@H](CC(N)=O)NC(=O)[C@H](C)NC(=O)[C@H](CC(C)C)NC(=O)[C@H](CCCNC(=N)N)NC(=O)[C@H](CCC(N)=O)NC(=O)[C@@H](NC(=O)[C@H](C)NC(=O)[C@@H]1CSSC[C@H](NC(=O)[C@@H](N)CCCCNC(=O)COCCOCCNC(=O)COCCOCCNC(=O)CC[C@H](NC(=O)CCCCCCCCCCCCCCCCCCC(=O)O)C(=O)O)C(=O)N[C@@H](CC(N)=O)C(=O)N[C@@H]([C@@H](C)O)C(=O)N[C@@H](C)C(=O)N[C@@H]([C@@H](C)O)C(=O)N1)[C@@H](C)O)C(=O)N1CCC[C@H]1C(=O)N[C@@H](CO)C(=O)N[C@@H](CO)C(=O)N[C@H](C(=O)N[C@@H](CC(N)=O)C(=O)N[C@H](C(=O)NCC(=O)N[C@@H](CO)C(=O)N[C@@H](CCC(=O)O)C(=O)N[C@H](C(=O)N[C@@H](Cc1ccc(O)cc1)C(N)=O)[C@@H](C)O)C(C)C)[C@@H](C)O
notes: Acylated analogue of human amylin; also called compound 25
B2: N^ε1-[2-[2-[2-[[(4S)-4-carboxy-4-(19-carboxynonadecanoylamino)butanoyl]amino]ethoxy]ethoxy]acetyl]-[Arg17,Pro21,Pro27,Glu35]-h-amylin (peptide)
peptide: K([AEEA-γGlu-C20 diacid])CNTATCATQRLANFLRHSSPNFGAIPSSTNVGSETY-NH2
modifications: disulfide 2-7; N-terminus assumed
SMILES: CC[C@H](C)[C@H](NC(=O)[C@H](C)NC(=O)CNC(=O)[C@H](Cc1ccccc1)NC(=O)[C@H](CC(N)=O)NC(=O)[C@@H]1CCCN1C(=O)[C@H](CO)NC(=O)[C@H](CO)NC(=O)[C@H](Cc1c[nH]cn1)NC(=O)[C@H](CCCNC(=N)N)NC(=O)[C@H](CC(C)C)NC(=O)[C@H](Cc1ccccc1)NC(=O)[C@H](CC(N)=O)NC(=O)[C@H](C)NC(=O)[C@H](CC(C)C)NC(=O)[C@H](CCCNC(=N)N)NC(=O)[C@H](CCC(N)=O)NC(=O)[C@@H](NC(=O)[C@H](C)NC(=O)[C@@H]1CSSC[C@H](NC(=O)[C@@H](N)CCCCNC(=O)COCCOCCNC(=O)CC[C@H](NC(=O)CCCCCCCCCCCCCCCCCCC(=O)O)C(=O)O)C(=O)N[C@@H](CC(N)=O)C(=O)N[C@@H]([C@@H](C)O)C(=O)N[C@@H](C)C(=O)N[C@@H]([C@@H](C)O)C(=O)N1)[C@@H](C)O)C(=O)N1CCC[C@H]1C(=O)N[C@@H](CO)C(=O)N[C@@H](CO)C(=O)N[C@H](C(=O)N[C@@H](CC(N)=O)C(=O)N[C@H](C(=O)NCC(=O)N[C@@H](CO)C(=O)N[C@@H](CCC(=O)O)C(=O)N[C@H](C(=O)N[C@@H](Cc1ccc(O)cc1)C(N)=O)[C@@H](C)O)C(C)C)[C@@H](C)O
notes: Acylated analogue of human amylin; also called compound 26
B3: N^ε1-[(4S)-4-carboxy-4-(19-carboxynonadecanoylamino)butanoyl]-[Arg17,Pro21,Pro27,Glu35]-h-amylin (peptide)
peptide: K([γGlu-C20 diacid])CNTATCATQRLANFLRHSSPNFGAIPSSTNVGSETY-NH2
modifications: disulfide 2-7; N-terminus assumed
SMILES: CC[C@H](C)[C@H](NC(=O)[C@H](C)NC(=O)CNC(=O)[C@H](Cc1ccccc1)NC(=O)[C@H](CC(N)=O)NC(=O)[C@@H]1CCCN1C(=O)[C@H](CO)NC(=O)[C@H](CO)NC(=O)[C@H](Cc1c[nH]cn1)NC(=O)[C@H](CCCNC(=N)N)NC(=O)[C@H](CC(C)C)NC(=O)[C@H](Cc1ccccc1)NC(=O)[C@H](CC(N)=O)NC(=O)[C@H](C)NC(=O)[C@H](CC(C)C)NC(=O)[C@H](CCCNC(=N)N)NC(=O)[C@H](CCC(N)=O)NC(=O)[C@@H](NC(=O)[C@H](C)NC(=O)[C@@H]1CSSC[C@H](NC(=O)[C@@H](N)CCCCNC(=O)CC[C@H](NC(=O)CCCCCCCCCCCCCCCCCCC(=O)O)C(=O)O)C(=O)N[C@@H](CC(N)=O)C(=O)N[C@@H]([C@@H](C)O)C(=O)N[C@@H](C)C(=O)N[C@@H]([C@@H](C)O)C(=O)N1)[C@@H](C)O)C(=O)N1CCC[C@H]1C(=O)N[C@@H](CO)C(=O)N[C@@H](CO)C(=O)N[C@H](C(=O)N[C@@H](CC(N)=O)C(=O)N[C@H](C(=O)NCC(=O)N[C@@H](CO)C(=O)N[C@@H](CCC(=O)O)C(=O)N[C@H](C(=O)N[C@@H](Cc1ccc(O)cc1)C(N)=O)[C@@H](C)O)C(C)C)[C@@H](C)O
notes: Acylated analogue of human amylin; also called compound 27
B4: N^ε1-[(4S)-4-carboxy-4-(19-carboxynonadecanoylamino)butanoyl]-[Arg17,Pro21,Pro27,Lys35]-h-amylin (peptide)
peptide: K([γGlu-C20 diacid])CNTATCATQRLANFLRHSSPNFGAIPSSTNVGSKTY-NH2
modifications: disulfide 2-7; N-terminus assumed
SMILES: CC[C@H](C)[C@H](NC(=O)[C@H](C)NC(=O)CNC(=O)[C@H](Cc1ccccc1)NC(=O)[C@H](CC(N)=O)NC(=O)[C@@H]1CCCN1C(=O)[C@H](CO)NC(=O)[C@H](CO)NC(=O)[C@H](Cc1c[nH]cn1)NC(=O)[C@H](CCCNC(=N)N)NC(=O)[C@H](CC(C)C)NC(=O)[C@H](Cc1ccccc1)NC(=O)[C@H](CC(N)=O)NC(=O)[C@H](C)NC(=O)[C@H](CC(C)C)NC(=O)[C@H](CCCNC(=N)N)NC(=O)[C@H](CCC(N)=O)NC(=O)[C@@H](NC(=O)[C@H](C)NC(=O)[C@@H]1CSSC[C@H](NC(=O)[C@@H](N)CCCCNC(=O)CC[C@H](NC(=O)CCCCCCCCCCCCCCCCCCC(=O)O)C(=O)O)C(=O)N[C@@H](CC(N)=O)C(=O)N[C@@H]([C@@H](C)O)C(=O)N[C@@H](C)C(=O)N[C@@H]([C@@H](C)O)C(=O)N1)[C@@H](C)O)C(=O)N1CCC[C@H]1C(=O)N[C@@H](CO)C(=O)N[C@@H](CO)C(=O)N[C@H](C(=O)N[C@@H](CC(N)=O)C(=O)N[C@H](C(=O)NCC(=O)N[C@@H](CO)C(=O)N[C@@H](CCCCN)C(=O)N[C@H](C(=O)N[C@@H](Cc1ccc(O)cc1)C(N)=O)[C@@H](C)O)C(C)C)[C@@H](C)O
notes: Acylated analogue of human amylin; also called compound 35

One may read the IC50 as the point on the concentration scale where inhibition reaches its midpoint.

Numbered stars: 1 amine (or outer) side, 2 acyl side, 3 side chain; on linkers, the order of the positions; unused ones are H or OH. Bridge positions count the residues as written; N and C are the ends. Side chains are listed from the residue outwards. Ends that are not written are not given here. * marks the point of attachment. C20 diacid = O=C(O)CCCCCCCCCCCCCCCCCCC(=O)*; γGlu = O=C(O)[C@H](CCC(=O)[*:2])N[*:1]; AEEA = NCCOCCOCC(=O)O

The target of one test is T1, rat calcitonin receptor (rat, UniProt P32214 25-516).
T1 construct: whole, on cells; Cell membranes of transiently transfected BHK tk'ts 13 cells (Assay VIII); also called rCTR; rCT
T1 sequence (looked up): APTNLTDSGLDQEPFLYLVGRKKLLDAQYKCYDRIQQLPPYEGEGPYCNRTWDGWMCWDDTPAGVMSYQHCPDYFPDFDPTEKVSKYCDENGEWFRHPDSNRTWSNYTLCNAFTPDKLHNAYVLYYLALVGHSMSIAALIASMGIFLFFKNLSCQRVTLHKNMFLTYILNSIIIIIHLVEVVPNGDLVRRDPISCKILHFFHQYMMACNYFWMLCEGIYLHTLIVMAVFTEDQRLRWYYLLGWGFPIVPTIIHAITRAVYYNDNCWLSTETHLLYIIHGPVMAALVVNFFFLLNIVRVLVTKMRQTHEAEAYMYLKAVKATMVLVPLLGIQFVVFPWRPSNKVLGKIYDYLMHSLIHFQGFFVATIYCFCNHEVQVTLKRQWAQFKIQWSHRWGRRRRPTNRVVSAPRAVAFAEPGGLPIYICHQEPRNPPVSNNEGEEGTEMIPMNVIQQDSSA
Description: SPA competition vs 125I-calcitonin, membranes with rat CTR (Assay VIII).
Consider B1, for which the IC50 worked out at 131 nM.
Same read-out and setting: under B2 stands 152 nM; under B3, 90.2 nM; under B4, 61.7 nM.

In a further test the target is T2, human calcitonin receptor (human, UniProt P30988 25-474).
T2 construct: whole, on cells; Cell membranes of a stably transfected BHK cell line (Assay VII); also called hCTR; hCT
T2 sequence (looked up): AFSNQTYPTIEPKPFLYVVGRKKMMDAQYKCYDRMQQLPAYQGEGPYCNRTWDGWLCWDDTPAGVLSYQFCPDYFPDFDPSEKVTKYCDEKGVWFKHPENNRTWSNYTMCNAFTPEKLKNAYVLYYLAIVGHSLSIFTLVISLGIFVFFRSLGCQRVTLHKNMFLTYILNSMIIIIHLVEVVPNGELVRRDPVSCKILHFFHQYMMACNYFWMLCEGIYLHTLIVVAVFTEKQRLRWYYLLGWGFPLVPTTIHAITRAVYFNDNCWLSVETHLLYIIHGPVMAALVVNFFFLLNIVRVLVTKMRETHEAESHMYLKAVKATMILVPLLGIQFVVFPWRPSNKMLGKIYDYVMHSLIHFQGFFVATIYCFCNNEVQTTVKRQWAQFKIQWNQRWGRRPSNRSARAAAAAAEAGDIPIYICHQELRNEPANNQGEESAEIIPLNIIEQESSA
Put plainly: ratio IC50 human calcitonin receptor / IC50 human amylin receptor. The procedure: The resulting pellet was resuspended, homogenized and centrifuged (20.000 rpm, 15 min) in a buffer containing 20 mM Na-HEPES and 0.1 mM EDTA (pH 7.4, buffer 2). The resulting pellet was resuspended in buffer 2 and protein concentration was measured (BCA protein Assay, Pierce). The homogenate was kept cold during the whole procedure. The membranes were kept at −80° C. until use. The assay was performed in a 384 well Optiplate (PerkinElmer) in a total volume of 40 ul. Membranes were mixed with SPA beads. Final concentration of membranes 35 ng/μL final and SPA beads was 0.05 mg/well. Test-compounds were dissolved in DMSO and further diluted in assay buffer (50 mM Hepes, pH 7.4, 1 mM CaCl2, 5 mM MgCl₂, 0.1% OA and 0.02% Tween20). […] The final mixture was incubated with shaking at 400 rpm for 120 min at 25° C. prior to centrifugation (1500 rpm, 10 min). Samples were analyzed on TopCounter™ (Packard). The IC₅₀ was calculated using (one site binding competition analysis) GraphPad Prism5 as a measure of receptor affinity.
Membranes were prepared in the following way; the cells were rinsed with PBS and incubated with Versene for approximately 5 min before harvesting. The cells were flushed with PBS and the cell-suspension was centrifuged for 5 min at 1000 rpm. Cells were homogenized (Ultrathurrax) in a buffer containing 20 mM Na-HEPES and 10 mM EDTA (pH 7.4) and centrifuged at 20.000 rpm for 15 min. The resulting pellet was resuspended, homogenized and centrifuged (20.000 rpm, 15 min) in a buffer containing 20 mM Na-HEPES and 0.1 mM EDTA (pH 7.4, buffer 2). The resulting pellet was resuspended in buffer 2 and protein concentration was measured (BCA protein Assay, Pierce). The homogenate was kept cold during the whole procedure. The membranes were kept at −80° C. until use. Assay was performed in a 384 well Optiplate (PerkinElmer) in a total volume of 40 ul. Membranes were mixed with SPA beads.
Turning to B1, the “Ratio hCT/hAmylin binding” value was determined as 56.5.
Take B2: the “Ratio hCT/hAmylin binding” value was 47.5.
On the same count and under the same terms, under B3 stands 41.3; under B4, 50.3.

For a further test, the target named is T3, rat amylin receptor (rat calcitonin receptor + rat RAMP 3) (rat, UniProt P32214 25-516; Q9JJ73 23-147).
T3 construct: whole, on cells; Cell membranes of transiently transfected BHK tk'ts 13 cells (Assay VI); also called rAmylin-R; rat amylin 3(a) receptor
T3 sequence (looked up) 1: T1 sequence (looked up)
T3 sequence (looked up) 2: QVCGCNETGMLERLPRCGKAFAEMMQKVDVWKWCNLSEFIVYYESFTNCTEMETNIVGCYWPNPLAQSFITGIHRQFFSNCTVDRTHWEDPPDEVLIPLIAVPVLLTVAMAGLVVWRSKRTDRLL
Description: SPA competition vs 125I-rat amylin, membranes with rat CTR + rat RAMP3 (Assay VI).
Take B1: the IC50 was 3.48 nM.
Regarding B2, the IC50 was 0.491 nM.
On the same count and under the same terms, under B3 stands 0.614 nM; under B4, 0.948 nM.

The next test deals with T1, rat calcitonin receptor. Put plainly: ratio IC50 rat calcitonin receptor / IC50 rat amylin receptor.
With B1, the “Ratio rCT/rAmylin binding” value turned out to be 37.7.
The same measure, in the same setting: the figure for B2 is 309.
The same measure, in the same setting: under B3 stands 147.
Still for that read-out and setting: the figure for B4 is 65.1.

The values are drawn from patent US20140087995A1 (published 2014).
